Test results: patent US20240327522A1 (Genentech, published 2024)

T1: recombinant human αvβ8 protein (PARS-17102) (human)
T1 construct: also called hu.aVb8.17102; not shown: C-terminal acid/basic coils and any purification tags
T1 alpha: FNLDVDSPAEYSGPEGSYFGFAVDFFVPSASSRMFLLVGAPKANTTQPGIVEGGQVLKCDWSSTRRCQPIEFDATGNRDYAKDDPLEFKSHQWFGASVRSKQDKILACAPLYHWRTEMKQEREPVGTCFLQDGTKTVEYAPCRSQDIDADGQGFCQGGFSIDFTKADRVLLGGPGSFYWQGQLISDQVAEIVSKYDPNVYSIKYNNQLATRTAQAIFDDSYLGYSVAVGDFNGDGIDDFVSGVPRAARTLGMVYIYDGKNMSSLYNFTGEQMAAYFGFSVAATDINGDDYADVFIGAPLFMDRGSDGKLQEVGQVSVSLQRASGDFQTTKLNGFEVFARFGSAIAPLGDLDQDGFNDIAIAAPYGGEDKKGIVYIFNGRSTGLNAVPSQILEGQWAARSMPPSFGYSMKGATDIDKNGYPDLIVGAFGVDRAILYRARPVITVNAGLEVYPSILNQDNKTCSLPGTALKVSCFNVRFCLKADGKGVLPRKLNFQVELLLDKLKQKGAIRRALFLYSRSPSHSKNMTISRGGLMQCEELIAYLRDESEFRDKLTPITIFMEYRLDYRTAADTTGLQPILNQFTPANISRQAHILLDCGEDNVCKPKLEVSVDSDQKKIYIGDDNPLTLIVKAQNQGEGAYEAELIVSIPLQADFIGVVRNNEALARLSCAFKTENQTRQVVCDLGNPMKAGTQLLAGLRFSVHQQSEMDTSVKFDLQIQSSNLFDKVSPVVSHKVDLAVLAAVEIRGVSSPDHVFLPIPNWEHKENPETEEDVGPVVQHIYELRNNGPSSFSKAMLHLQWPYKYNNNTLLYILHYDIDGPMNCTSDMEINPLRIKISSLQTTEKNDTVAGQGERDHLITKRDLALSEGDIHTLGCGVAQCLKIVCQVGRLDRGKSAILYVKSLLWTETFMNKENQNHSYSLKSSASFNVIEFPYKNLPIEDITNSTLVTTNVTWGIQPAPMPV
T1 beta: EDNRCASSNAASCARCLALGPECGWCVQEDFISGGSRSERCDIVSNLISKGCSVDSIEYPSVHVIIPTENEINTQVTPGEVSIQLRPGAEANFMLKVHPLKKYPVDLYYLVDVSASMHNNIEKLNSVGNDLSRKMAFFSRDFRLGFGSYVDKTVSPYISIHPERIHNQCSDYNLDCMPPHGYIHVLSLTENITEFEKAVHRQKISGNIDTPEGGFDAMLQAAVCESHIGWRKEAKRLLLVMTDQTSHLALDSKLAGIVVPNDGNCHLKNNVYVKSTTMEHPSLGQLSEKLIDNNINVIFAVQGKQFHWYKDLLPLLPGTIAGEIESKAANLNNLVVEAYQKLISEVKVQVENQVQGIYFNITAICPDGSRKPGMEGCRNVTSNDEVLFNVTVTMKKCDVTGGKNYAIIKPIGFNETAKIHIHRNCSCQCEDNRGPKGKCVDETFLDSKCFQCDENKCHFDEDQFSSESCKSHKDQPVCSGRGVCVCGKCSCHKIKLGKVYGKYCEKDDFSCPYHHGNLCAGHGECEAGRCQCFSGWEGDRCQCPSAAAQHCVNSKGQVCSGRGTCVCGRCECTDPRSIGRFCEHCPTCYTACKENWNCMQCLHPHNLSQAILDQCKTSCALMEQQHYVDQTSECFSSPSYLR

B1: αvβ8-65 in the murine Fc format (antibody, V domains shown)
VH: EVQLLESGGGLVQPGGSLRLSCAASGIDLSNYAMIWVRQAPGKGLEWVGIISSSDRIWYASWVKGRFTISRDNSKNTLYLQMNSLRAEDTAVYYCSRSVSNSYFDGWNLWGQGTLVTVSS
VL: DIQMTQSPSSVSASVGDRVTITCQASENINSLLAWYQQKPGKAPKLLIYRASTLASGVPSRFSGSGSGTDFTLTISSLQPEDFATYYCQSNYGFTGSGAFFYGFGQGTKVEIK
B2: Rb.aVb8-65 (antibody, V domains shown)
VH: QSVEESGGRLVTPGTPLTLTCTVSGIDLSNYAMIWVRQAPGKGLEWIGIISSSDRIWYASWVKGRFTISKTSSTTVDLQMTSLTTEDTATYFCSRSVSNSYFDGWNLWGPGTLVTVSS
VL: DIVMTQTPASVEAAVGGTVTIKCQASENINSLLAWYQQKPGQPPKLLIYRASTLASGVPSRFRGSGSGTQFTLTISDLECDDAATYYCQSNYGFTGSGAFFYGFGGGTEVVVE
notes: Recombinant rabbit monoclonal antibody expressed in Expi293 cells; also called rb.αvβ8-65; rabbit αvβ8-65
B3: Rb.aVb8-92 (antibody, V domains shown)
VH: QSVEESGGRLVTPGTPLTLTCTVSGFSLSSYAMGWVRQAPGKGLEWIGVIRKDDNTYYGNWAKGRFTISRTSTTVDLKMTSLTAADTATYFCARALNTYVGFPYFNIWGPGTLVTVSS
VL: AAVLTQTPSPVSAAVGGTVSISCQSIKSVGDNKWLAWYQQKPGQPPKLLIYDASDLASGVPSRFKGSGSRTQFTLTISDLQCDDAATYYCAGSVSSGDSGFGGGTEVVVA
notes: Recombinant rabbit monoclonal antibody expressed in Expi293 cells; also called rb.αvβ8-92; rabbit αvβ8-92

Assays:
[1] = molecular target: human αvβ8 endogenously expressed on cells (human); assay: cell-based or functional assay
[2] = molecular target: human αvβ8 endogenously expressed on cells (human)
[3] = molecular target: recombinant human αvβ8 protein (PARS-17102) (human); assay: SPR, Biacore kinetic screen at 37 °C, 1:1 binding fit; antibody as ligand, hu.aVb8-17102 as sample; in the presence of divalent cations according to
[4] = molecular target: recombinant human αvβ8 protein (PARS-17102) (human); assay: SPR, Biacore T200, anti-murine Fc capture (murine Fc format), human αvβ8 analyte 0-50 nM, 37 C, 1:1 model (FIG. 10)
[5] = molecular target: recombinant human αvβ8 protein (PARS-17102) (human); assay: SPR, Biacore T200, anti-murine Fc capture (murine Fc format), human αvβ8 analyte 0-50 nM, 37 C, 1:1 model (FIG. 10); below the instrument's detection limit
[6] = molecular target: T1, recombinant human αvβ8 protein …; assay: SPR, Biacore kinetic screen at 37 °C, 1:1 binding fit; antibody as ligand, hu.aVb8-17102 as sample; in the presence of divalent cations according to
[7] = molecular target: T1, recombinant human αvβ8 protein …; assay: SPR, Biacore T200, antibody captured on protein A chip, aVb8 as analyte, 37 C, 1:1 Langmuir model
Method: (§1) The binding affinity of the antibodies was determined by BIAcore™ T200 machine. For kinetics measurements, antibodies were captured on research grade protein A chip (Cytiva, USA) to achieve approximately 60 RU. Ten-fold serial dilutions of human, murine and cyno aVb8 were injected in the same running buffer as above at 37° C. with a flow rate of 100 μL/min. Association rates (ka) and dissociation rates (kd) were calculated using a 1:1 Langmuir binding model (BIAcore™ T200 Evaluation Software version 2.0). The equilibrium dissociation constant (KD) was calculated as the ratio kd/ka. […]

[8] = molecular target: T2, recombinant mouse αvβ8 protein (PARS-17103) (murine, UniProt P43406 31-988; Q0VBD0 43-681, limits assumed); assay: as above
T2 construct: Made in house; also called mu.aVb8.17103
T2 sequence (P43406 31-988 limits assumed, chain 1 of 2): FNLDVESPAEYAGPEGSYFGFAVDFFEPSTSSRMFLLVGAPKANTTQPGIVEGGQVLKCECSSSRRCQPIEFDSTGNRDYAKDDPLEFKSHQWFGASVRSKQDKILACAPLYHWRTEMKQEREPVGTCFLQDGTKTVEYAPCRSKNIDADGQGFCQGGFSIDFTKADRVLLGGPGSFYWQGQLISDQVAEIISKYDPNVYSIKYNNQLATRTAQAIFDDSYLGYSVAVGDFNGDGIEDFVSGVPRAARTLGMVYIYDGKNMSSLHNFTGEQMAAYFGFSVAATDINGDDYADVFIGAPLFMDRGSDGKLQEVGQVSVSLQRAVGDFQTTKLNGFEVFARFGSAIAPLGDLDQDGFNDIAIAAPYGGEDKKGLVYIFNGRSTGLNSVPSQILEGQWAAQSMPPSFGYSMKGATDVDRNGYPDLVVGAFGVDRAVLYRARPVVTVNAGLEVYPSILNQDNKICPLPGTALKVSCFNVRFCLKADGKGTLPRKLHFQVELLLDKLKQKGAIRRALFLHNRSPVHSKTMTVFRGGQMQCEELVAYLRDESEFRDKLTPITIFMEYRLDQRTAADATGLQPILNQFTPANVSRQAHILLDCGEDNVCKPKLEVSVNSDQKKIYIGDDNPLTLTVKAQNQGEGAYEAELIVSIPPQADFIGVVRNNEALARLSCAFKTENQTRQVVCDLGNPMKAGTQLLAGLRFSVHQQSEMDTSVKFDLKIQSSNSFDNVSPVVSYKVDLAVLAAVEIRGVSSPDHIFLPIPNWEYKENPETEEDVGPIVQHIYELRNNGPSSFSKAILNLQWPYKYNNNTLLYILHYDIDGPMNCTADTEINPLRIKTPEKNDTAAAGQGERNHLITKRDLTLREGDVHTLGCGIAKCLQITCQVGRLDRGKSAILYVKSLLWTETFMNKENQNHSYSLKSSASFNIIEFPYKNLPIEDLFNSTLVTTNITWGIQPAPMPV
T2 sequence (Q0VBD0 43-681 limits assumed, chain 2 of 2): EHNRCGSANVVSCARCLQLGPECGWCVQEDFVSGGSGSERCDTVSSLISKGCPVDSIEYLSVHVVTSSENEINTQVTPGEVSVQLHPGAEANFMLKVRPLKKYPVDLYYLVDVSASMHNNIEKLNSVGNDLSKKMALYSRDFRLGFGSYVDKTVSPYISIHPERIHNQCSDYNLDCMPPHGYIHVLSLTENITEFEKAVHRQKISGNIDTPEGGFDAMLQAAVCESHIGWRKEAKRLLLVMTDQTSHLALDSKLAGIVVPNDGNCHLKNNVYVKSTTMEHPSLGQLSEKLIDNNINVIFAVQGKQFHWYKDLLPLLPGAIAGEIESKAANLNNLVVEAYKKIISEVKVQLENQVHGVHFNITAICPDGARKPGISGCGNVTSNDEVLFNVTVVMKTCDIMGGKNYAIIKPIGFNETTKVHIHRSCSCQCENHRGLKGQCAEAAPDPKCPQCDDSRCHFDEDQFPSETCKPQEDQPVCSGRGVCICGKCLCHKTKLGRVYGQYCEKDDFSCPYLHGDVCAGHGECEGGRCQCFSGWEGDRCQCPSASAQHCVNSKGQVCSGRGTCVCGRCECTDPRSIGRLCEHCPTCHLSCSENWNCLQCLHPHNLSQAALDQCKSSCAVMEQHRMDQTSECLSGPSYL
Method: as §1

cyno.aVb8.13650 = molecular target: T3, cyno.aVb8.13650 (cynomolgus, UniProt A0A2K5WCD3 31-992; G7P0S0 43-684); assay: as above
T3 construct: Carries another lot/construct number than cyno.aVb8-19393; kept apart; also called cynomolgus αvβ8
Method: as §1

[9] = molecular target: T1, recombinant human αvβ8 protein …; assay: SPR, Biacore kinetic screen at 37 °C, 1:1 binding fit flagged with a warning sign; antibody as ligand, hu.aVb8-17102 as sample; in the presence of divalent cations according to

Row | Molecule | IC50 (nM), experiment #1: LN-229 + 3T3-Nano-human GARP/LTGFβ1 (WT) co-culture, NanoLuc reporter [1] [nM] | IC50 (nM), experiment #2: LN-229 + 3T3-Nano-human GARP/LTGFβ1 (WT) co-culture, NanoLuc reporter [1] [nM] | IC50 (nM), experiment #3: LN-229 + 3T3-Nano-human GARP/LTGFβ1 (non-releasable, NR) co-culture, NanoLuc reporter [1] [nM] | IC50 (nM), experiment #4: LN-229 + 3T3-Nano-human GARP/LTGFβ3 (WT) co-culture, NanoLuc reporter [1] [nM] | Kd [4] [nM] | koff [4] [s⁻¹] | kon [4] [M⁻¹ s⁻¹] | Kd [7] [nM] | koff [7] [s⁻¹] | kon [7] [M⁻¹ s⁻¹] | Kd [8] [nM] | koff [8] [s⁻¹] | kon [8] [M⁻¹ s⁻¹] | Kd (cyno.aVb8.13650) [nM] | koff (cyno.aVb8.13650) [s⁻¹] | kon (cyno.aVb8.13650) [M⁻¹ s⁻¹] | further results
1 | C6D4 mIgG2a.LALAPG (antibody) | 0.63 | 1.45 | 0.24 | 0.78 | 1.06 | 9.3e-05 | 87800 |  |  |  |  |  |  |  |  |  | IC50 of the TGFb1 reporter signal, co-culture of LN-229 cells with 3T3-Nano GARP/LTGFb1 reporter cells [2]: 2.11 nM; Kd [3]: 3.8 nM; koff [3]: 0.000266 s⁻¹; kon [3]: 69900 M⁻¹ s⁻¹
2 | ADWA11 mIgG2a.LALAPG (antibody) | 0.95 | 1.51 | 0.34 | 0.79 | 0.451 | 5.33e-05 | 118000 |  |  |  |  |  |  |  |  |  | 
3 | Isotype control (antibody) | > 333 | > 333 | > 333 | > 333 |  |  |  |  |  |  |  |  |  |  |  |  | 
4 | B1 |  |  |  |  | < 0.0258 |  | 258000 |  |  |  |  |  |  |  |  |  | koff [5]: < 1e-05 s⁻¹
5 | B2 |  |  |  |  |  |  |  | 0.7 | 0.000131 | 187000 | 0.9 | 0.000132 | 146000 | 1.94 | 0.000121 | 62400 | Kd [6]: 1.54 nM; koff [6]: 0.000349 s⁻¹; kon [6]: 227000 M⁻¹ s⁻¹
6 | B3 |  |  |  |  |  |  |  | 1.6 | 0.000164 | 102000 | 1.86 | 0.000184 | 98600 | 6.91 | 0.000293 | 42400 | Kd [9]: 671 nM; koff [9]: 0.000777 s⁻¹; kon [9]: 1160 M⁻¹ s⁻¹
